The text below walks through data of the DeepSol protein solubility set.

This data set in a line: soluble on expression in E. coli; label from the status in PepcDB or PDB records.
With “MTTARPAKARNEGQWALGHREPLNANEELKKAGNPLDVRERIENIYAKQGFDSIDKTDLRGRFRWWGLYTQREQGYDGTWTGDDNIDKLEAKYFMMRVRCDGGALSAAALRTLGQISTEFARDTADISDRQNVQYHWIEVENVPEIWRRLDDVGLQTTEACGDCPRVVLGSPLAGESLDEVLDPTWAIEEIVRRYIGKPDFADLPRKYKTAISGLQDVAHEINDVAFIGVNHPEHGPGLDLWVGGGLSTNPMLAQRVGAWVPLGEVPEVWAAVTSVFRDYGYRRLRAKARLKFLIKDWGIAKFREVLETEYLKRPLIDGPAPEPVKHPIDHVGVQRLKNGLNAVGVAPIAGRVSGTILTAVADLMARAGSDRIRFTPYQKLVILDIPDALLDDLIAGLDALGLQSRPSHWRRNLMACSGIEFCKLSFAETRVRAQHLVPELERRLEDINSQLDVPITVNINGCPNSCARIQIADIGFKGQMIDDGHGGSVEGFQVHLGGHLGLDAGFGRKLRQHKVTSDELGDYIDRVVRNFVKHRSEGERFAQWVIRAEEDDLR”, the “soluble on expression in E. coli” value is listed as “soluble”.

As for “MTTDERKLFNHLKSPHLKYWVPFIWFGNLATKARNEGRIRDSVDLQSLMTEMNRYRSWCSLLFGYDWVGIPLVYTQVAEQLINPFGEDDDDFETNWCIDRNLQVSLLAVDEMHMSLPKMKKDIYWDDSAARPPYTLAAADYCIPSFLGSTVQMGLSGSDFPDEEWLWDYEKHGHRHSMIRRVKRFLSAHEHPSSPRRRSYRRQTSDSSMFLPRDDLSPARDLLDVPSRNPPRASPTWKKSCFPEGSPTLHFSMGELSTIRETSQTSTL”, the “soluble on expression in E. coli” value is “soluble”.

As to “MTTEAPIWPAELFEDLDRNGPIPLYFQVAQRLEDGIRSGVLPPGARLENEISVAKHLNVSRPTVRRAIQEVVDKGLLVRRRGVGTQVVQSHVTRPVELTSFFNDLKNANLDPKTRVLEHRLLAASSAIAEKLGVSAGDEVLLIRRLRSTGDIPVAILENYLPPAFNDVSLDELEKGGLYDALRSRGVVLKIANQKIGARRAVGEESTLLDIEDGGPLLTVERVALDNSGQVIELGSHCYRPDMYNFETTLVAR”, the “soluble on expression in E. coli” value is “soluble”.

Turning to “MTTIASFPILQLPEKSLKIAIQSLTLEELIKFSLISKSTKRAAESLNLQADPFCDLY”, the “soluble on expression in E. coli” value is “not soluble”.

On to “MTTNEEFIRTQIFGTVFEITNRYNDLNPVGMGAFGLVCSATDTLTSQPVAIKKIMKPFSTAVLAKRTYRELKLLKHLRHENLICLQDIFLSPLEDIYFVTELQGTDLHRLLQTRPLEKQFVQYFLYQILRGLKYVHSAGVIHRDLKPSNILINENCDLKICDFGLARIQDPQMTGYVSTRYYRAPEIMLTWQKYDVEVDIWSAGCIFAEMIEGKPLFPGKDHVHQFSIITDLLGSPPKDVINTICSENTLKFVTSLPHRDPIPFSERFKTVEPDAVDLLEKMLVFDPKKRITAADALAHPYSAPYHDPTDEPVADAKFDWHFNDADLPVDTWRVMMYSEILDFHKIGGSDGQIDISATFDDQVAAATAAAAQAQAQAQAQVQLNMAAHSHNGAGTTGNDHSDIAGGNKVSDHVAANDTITDYGNQAIQYANEFQQ”, for which the “soluble on expression in E. coli” value was “soluble”.

With “MTTNNDFYFALLRISILQLLKAQGFDRARPSLVDVMTDLYAKFLSLLASEVSSIAQARCDQDDTIALQDITLALENLGIVKPTNVLDVYDENSELSSSRGMEKFKDWCIYSTQLTDARITALPTVELLQSEEKESDPLSAIPDYLNQLLQNKGAKQKLETKNRKTELIEDLINNNGLDDWIKLVIARQRINMIERASKKESQNVPALPHIAGYKSSILSRHHHTTITNEDRMPSAMTPRDEDALTEIQENPFVTSKLPIMRKENRLENITLSFEDEELESLGEVEGPNQKSQENNNEESFKENNKSLTESPHGDDRDISMFQFDSNVDTKWAEQEDMDSTFQRRTSLDYGGYF”, the “soluble on expression in E. coli” value was “not soluble”.

“MTTPLKKIVIVGGGAGGLEMATQLGHKLGRKKKAKITLVDRNHSHLWKPLLHEVATGSLDEGVDALSYLAHARNHGFQFQLGSVIDIDREAKTITIAELRDEKGELLVPERKIAYDTLVMALGSTSNDFNTPGVKENCIFLDNPHQARRFHQEMLNLFLKYSANLGANGKVNIAIVGGGATGVELSAELHNAIKQLHSYGYKGLTNEALNVTLVEAGERILPALPPRISAAAHNELTKLGVRVLTQTMVTSADEGGLHTKDGEYIEADLMVWAAGIKAPDFLKDIGGLETNRINQLVVEPTLQTTRDPDIYAIGDCASCPRPEGGFVPPRAQAAHQMATCAMNNILAQMNGKPLKNYQYKDHGSLVSLSNFSTVGSLMGNLTRGSMMIEGRIARFVYISLYRMHQIALHGYFKTGLMMLVGSINRVIRPRLKLH”: the “soluble on expression in E. coli” value is reported as “not soluble”.

With “MTTPSMEMYIEQIYMLIEEKGYARVSDIAEALAVHPSSVTKMVQKLDKDEYLIYEKYRGLVLTSKGKKIGKRLVYRHELLEQFLRIIGVDEEKIYNDVEGIEHHLSWNSIDRIGDLVQYFEEDDARKKDLKSIQKKTEHHNQ”, the “soluble on expression in E. coli” value is on record as “soluble”.

Regarding “MTTSALPRQAFGEMADTVILLEKATTTPICEGMNRLLASFQALYLQYQKHHFVVEGAEFYPLHQFFQDCYEQVQDHVHALGERLNGLGGVPVAGFQQLAALCCFTPEPEGAFNCRQMLSNDLQAEQAIIGVLRQQATQAESLGDRATAYLYDQILLKTEERAYHIGHFLANDSLKVLKVKLADGREHHHHHH”, the “soluble on expression in E. coli” value was “soluble”.

As to “MTTSIWKKLVTAVRGGASEVGESIADANAIRILDQEIRDADNALVKARDGLITIKAKHKLSAQRLEEHATSIANWEGRAMQALNKGEEALAVECASKIAEIEALRDQEQELADQFGKQVSLLQEQVIKAESRIKSLKQQVEMAKARETVQRARVATATATGGASGSVETAVGSLARLKQRQDEQDAKLEAAEELASQSSGSDLERRLQDAGIGAKSGGAQDVLARLKAKNQTPAQLEHHHHHH”, the “soluble on expression in E. coli” value was “not soluble”.

In the case of “MTVAVIGAHGGIGRRLLPRLNEAGHDPIGVVRSEDQFAAIRDRGAEPRLGDLEGEVASALDGADAVVFTAGAGGSTGWDKTILVDLWGAERAVHACEEKEIDRFVMVSSRGAGDPESRQGPIKPYIVAKHVADRTLQRSSLDETILRPTRLTDAEGTGRVAAYVDTDPDAGDPIPRADVAQAVVQCLADDNTVGHAITLYGGDTPIGEALRPSGLEHHHHHH”, the “soluble on expression in E. coli” value is “not soluble”.

For the sequence “MTVGLGMPQPPAPTLAPRRATRQLMVGNVGVGSDHPVSVQSMCTTKTHDVNSTLQQIAELTAAGCDIVRVACPRQEDADALAEIARHSQIPVVADIHFQPRYIFAAIDAGCAAVRVNPGNIKEFDGRVGEVAKAAGAAGIPIRIGVNAGSLDKRFMEKYGKATPEALVESALWEASLFEEHGFGDIKISVKHNDPVVMVAAYELLAARCDYPLHLGVTEAGPAFQGTIKSAVAFGALLSRGIGDTIRVSLSAPPVEEVKVGNQVLESLNLRPRSLEIVSCPSCGRAQVDVYTLANEVTAGLDGLDVPLRVAVMGCVVNGPGEAREADLGVASGNGKGQIFVRGEVIKTVPEAQIVETLIEEAMRLAAEMGEQDPGATPSGSPIVTVS”, the “soluble on expression in E. coli” value was “soluble”.

As to “MTVSSHRLELLSPARDAAIAREAILHGADAVYIGGPGFGARHNASNSLKDIAELVPFAHRYGAKIFVTLNTILHDDELEPAQRLITDLYQTGVDALIVQDMGILELDIPPIELHASTQCDIRTVEKAKFLSDVGFTQIVLARELNLDQIRAIHQATDATIEFFIHGALCVAYSGQCYISHAQTGRSANRGDCSQACRLPYTLKDDQGRVVSYEKHLLSMKDNDQTANLGALIDAGVRSFKIEGRYKDMSYVKNITAHYRQMLDAIIEERGDLARASSGRTEHFFVPSTEKTFHRGSTDYFVNARKGDIGAFDSPKFIGLPVGEVVKVAKDHLDVAVTEPLANGDGLNVLIKREVVGFRANTVEKTGENQYRVWPNEMPADLHKIRPHHPLNRNLDHNWQQALTKTSSERRVAVDIELGGWQEQLILTLTSEEGVSITHTLDGQFDEANNAEKAMNNLKDGLAKLGQTLYYARDVQINLPGALFVPNSLLNQFRREAADMLDAARLASYQRGSRKPVADPAPVYPQTHLSFLANVYNQKAREFYHRYGVQLIDAAYEAHEEKGEVPVMITKHCLRFAFNLCPKQAKGNIKSWKATPMQLVNGDEVLTLKFDCRPCEMHVIGKIKNHILKMPLPGSVVASVSPDELLKTLPKRKG”, the “soluble on expression in E. coli” value was “soluble”.

For “MTVTSMLDNVLRIATRQSPLALWQAHYVKDALMATHPGLTVELVPMVTRGDVILDTPLAKVGGKGLFVKELEIALLEKRADIAVHSMKDVPVAFPDGLGLVTICEREDPRDAFVSNKYHSLDDLPAGSIVGTSSLRRQCQLAERRPDLIIRSLRGNVGTRLGKLDNGDYDAIILAVAGLKRLGLESRIRTALPPDVSLPAVGQGAVGIECRLDDARTQALLAPLNHSQTALRVTAERAMNTRLEGGCQVPIGSYAEIINGEIWLRALVGAPDGSVMVRGERRGSPEQAEQMGISLAEELLENGARAILTEVYNGETPA”, the “soluble on expression in E. coli” value is “not soluble”.

As for “MTWQVQRRKWKLNLIAELESRVLAEPVPLPADPMELKNLEYRPVKVRGCFDHSKELYMMPRTMVDPVREAREGGLISSSTQSGAYVVTPFHCTDLGVTILVNRGFVPRKKVNPETRQKGQIEGEVDLIGMVRLTETRQPFVPENNPERNHWHYRDLEAMARITGAEPIFIDANFQSTVPGGPIGGQTRVTLRNEHLQYIVTWYGLSAATSYLWFKKFLRGTPGV”, the “soluble on expression in E. coli” value was “not soluble”.

In the case of “MTYDSEFGSHVSLYRDRIKQVIDDSLNEHLNSMILRVDLHDPIDTENMDNPFFQPRVDSGAISRFTSALKAKLKHDKHIKTQRKDWPDSRHSTLRYAWVREYTKNRKRHYHLILCFNQDAYYHLGDYDLNRNTLRTMITTAWYSALGIPIDSSGKLVNYPPNGKYLLNRKRDNFEQTYSDLMNRVDYMTKVRTKIVGDGDRNFGCSRG”, the “soluble on expression in E. coli” value is on record as “soluble”.

“MTYGIVIVSHSPEIASGLKKLIREVAKNISLTAIGGLENGEIGTSFDRVMNAIEENEADNLLTFFDLGSARMNLDLVSEMTDKELTIFNVPLIEGAYTASALLEAGATFEAIKEQLEKMLIEKRSHHHHHH”: the “soluble on expression in E. coli” value is on record as “soluble”.

Take “MTYTLAILGCGVMGQALLSAIYNAPKAADETAAAFYPSKIITCNHDEPSAQQVTDLVETFDESPNGIKVESTYGHNVSAVEEASVVLLGTKPFLAEEVLNGVKSVIGGKLLISLAAGWTIDQLSQYTSTVCRVMTNTPAKYGYGCAVVSYSADVSKEQKPLVNELISQVGKYVELPEKNMDAATALVGSGPAFVLLMLESLMESGLKLGIPLQESKECAMKVLEGTVKMVEKSGAHPSVLKHQVCTPGGTTIAGLCVMEEKGVKSGIINGVEEAARVASQLGQKKK”: the “soluble on expression in E. coli” value is given as “soluble”.

For the sequence “MVAATSQNTFDSPRSPLYNFTMDIRPLSDVAGVILVGGRSRRMGRDKALIPLGGKPLVERVIDAFRPLFERILLVGDRGERFASYGLPVFPDIHPGSALGGLYTGLVRAGTPHVFVSACDVPWPDPRVIARLCSLREGFDVVVPRTVGGSEPLFAVYGTGCLPAMERMLREGNYRIYDFYPEVRTRYVEQAELADLVTPARTFVNVNTPEEFETIRNREEGMAIKAVSFVAKSGTGKTTLLEKVIAELKGRGYRIGVIKHDAHRFDIDHPGKDSHRLAAAGADTMLIASPEKLALVKKYDESPPLDELLATYFGDVDIVLTEGFKKSSLPKIEVHRMERSATLLCRGEEHDPTLVAVASDAALALDVPVFDLNNPAQVADFVERTFLAAGAALEHHHHHH”, the “soluble on expression in E. coli” value was “soluble”.
